Experimental data as given in IntAct's records for PubMed 20498078.

Tests used:
pcd15_mouse Pcdh15 = pcd15_mouse Pcdh15 (UniProt Q99PJ1)
pcd15_mouse Pcdh15, sequence (Q99PJ1 whole entry): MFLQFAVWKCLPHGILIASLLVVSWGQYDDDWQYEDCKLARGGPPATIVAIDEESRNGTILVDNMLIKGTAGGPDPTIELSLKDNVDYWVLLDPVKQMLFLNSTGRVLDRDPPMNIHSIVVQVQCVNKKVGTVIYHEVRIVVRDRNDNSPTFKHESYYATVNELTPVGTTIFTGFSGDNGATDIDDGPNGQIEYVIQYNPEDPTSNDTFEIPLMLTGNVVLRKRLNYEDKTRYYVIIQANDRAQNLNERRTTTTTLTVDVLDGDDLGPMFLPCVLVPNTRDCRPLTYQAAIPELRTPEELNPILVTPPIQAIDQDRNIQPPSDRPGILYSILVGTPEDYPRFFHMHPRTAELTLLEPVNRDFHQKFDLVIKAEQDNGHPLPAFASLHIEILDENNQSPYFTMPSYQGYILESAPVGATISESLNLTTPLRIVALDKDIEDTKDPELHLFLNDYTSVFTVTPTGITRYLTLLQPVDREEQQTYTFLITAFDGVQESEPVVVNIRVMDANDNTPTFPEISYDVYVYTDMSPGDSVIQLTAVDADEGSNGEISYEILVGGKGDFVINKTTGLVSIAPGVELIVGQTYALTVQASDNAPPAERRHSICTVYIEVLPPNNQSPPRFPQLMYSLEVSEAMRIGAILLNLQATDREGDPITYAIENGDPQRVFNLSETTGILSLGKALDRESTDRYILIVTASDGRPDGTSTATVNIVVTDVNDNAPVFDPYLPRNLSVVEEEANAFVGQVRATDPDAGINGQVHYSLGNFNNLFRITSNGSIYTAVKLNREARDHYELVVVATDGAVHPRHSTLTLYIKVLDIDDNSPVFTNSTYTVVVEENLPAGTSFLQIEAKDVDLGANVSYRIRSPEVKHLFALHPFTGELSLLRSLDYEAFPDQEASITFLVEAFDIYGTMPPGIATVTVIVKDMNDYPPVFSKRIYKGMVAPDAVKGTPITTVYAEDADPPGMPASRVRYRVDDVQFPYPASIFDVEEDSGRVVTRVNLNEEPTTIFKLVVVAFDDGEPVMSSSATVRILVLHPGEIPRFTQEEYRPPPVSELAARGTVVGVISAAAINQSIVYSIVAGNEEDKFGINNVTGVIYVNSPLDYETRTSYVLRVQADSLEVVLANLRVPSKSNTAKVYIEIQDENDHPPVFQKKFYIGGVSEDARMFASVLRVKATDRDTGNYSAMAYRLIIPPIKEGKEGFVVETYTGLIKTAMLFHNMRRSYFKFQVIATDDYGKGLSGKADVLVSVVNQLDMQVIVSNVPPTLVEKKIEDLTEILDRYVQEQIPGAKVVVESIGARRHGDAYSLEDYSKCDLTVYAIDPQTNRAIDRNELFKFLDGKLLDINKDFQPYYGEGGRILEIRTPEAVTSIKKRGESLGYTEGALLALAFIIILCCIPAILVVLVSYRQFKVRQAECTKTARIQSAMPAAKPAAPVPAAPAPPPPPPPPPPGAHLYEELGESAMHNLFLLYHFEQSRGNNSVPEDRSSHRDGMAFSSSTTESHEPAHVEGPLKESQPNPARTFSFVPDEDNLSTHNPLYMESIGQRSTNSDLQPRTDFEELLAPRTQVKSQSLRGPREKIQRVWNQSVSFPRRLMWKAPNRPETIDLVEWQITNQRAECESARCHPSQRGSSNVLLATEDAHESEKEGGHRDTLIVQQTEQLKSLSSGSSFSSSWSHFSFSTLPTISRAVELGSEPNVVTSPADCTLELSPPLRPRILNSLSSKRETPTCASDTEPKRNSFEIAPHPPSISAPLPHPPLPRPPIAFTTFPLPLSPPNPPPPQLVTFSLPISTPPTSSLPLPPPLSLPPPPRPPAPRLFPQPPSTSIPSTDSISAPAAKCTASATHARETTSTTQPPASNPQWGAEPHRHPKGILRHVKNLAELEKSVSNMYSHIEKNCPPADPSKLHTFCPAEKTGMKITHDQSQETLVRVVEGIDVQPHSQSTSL

effect of a mutation on the interaction (pcd15_mouse Pcdh15) | effect of a mutation on the interaction (Cdh23, Q99PF4-1) | Substance
decreasing interaction | – | Cadherin-23 (Mus musculus), Q99PF4-1 R27I
decreasing interaction | – | Cadherin-23 (Mus musculus), Q99PF4-1 N26I;R27I
decreasing interaction | – | Cadherin-23 (Mus musculus), Q99PF4-1 N26I
– | decreasing interaction | Protocadherin-15 (Mus musculus), Q99PJ1 E35I;D36A
